These results are taken from patent EP0946727B1.

The target in test [1] is human CD11a (human) (UniProt P20701). As to the kind of experiment: FACScan on Jurkat cells.
The target is the same in test [2]. Kind of test: blocking of Jurkat cell adhesion to human keratinocytes (ICAM-1).
For test [3] the target is unchanged. Kind of test: saturation binding, human lymphocytes, donor 2, Kd(app).
Test [4] has the same target. As to the kind of experiment: cell binding, human CD11a.
Test [5] shares this target. As to the kind of experiment: saturation binding, human lymphocytes, donor 1, Kd(app).
For test [6] the target is unchanged. As to the kind of experiment: cell-based or functional assay.
Test [7] shares this target. Kind of test: binding to Jurkat cells (FACScan).
The target is the same in test [8]. As to the kind of experiment: saturation binding of 125I-antibody to human peripheral blood mononuclear cells, Kd(app).
Test [9] concerns the target rhesus CD18 (rhesus) (UniProt H9Z8N5). As to the kind of experiment: blocking of rhesus lymphocyte adhesion to recombinant human ICAM-1 on plates.
Test [10] has the same target. As to the kind of experiment: blocking of rhesus lymphocyte adhesion to human keratinocytes.

Sequence of humanized MHM24 IgG1 (antibody) (main, form in doubt): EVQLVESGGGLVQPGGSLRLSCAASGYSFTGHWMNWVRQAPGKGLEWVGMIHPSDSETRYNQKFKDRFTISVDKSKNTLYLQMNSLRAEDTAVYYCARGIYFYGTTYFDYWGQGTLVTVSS
Sequence of humanized MHM24 IgG1 (antibody) (main, form in doubt): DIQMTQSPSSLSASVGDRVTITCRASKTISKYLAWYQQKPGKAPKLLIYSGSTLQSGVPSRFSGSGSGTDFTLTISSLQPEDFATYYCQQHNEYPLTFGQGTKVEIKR
Sequence of chimeric MHM24 IgG1 (antibody) (main, form in doubt): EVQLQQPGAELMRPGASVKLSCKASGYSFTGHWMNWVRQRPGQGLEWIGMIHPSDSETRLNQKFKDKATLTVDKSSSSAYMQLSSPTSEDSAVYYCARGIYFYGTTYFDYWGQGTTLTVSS
Sequence of chimeric MHM24 IgG1 (antibody) (main, form in doubt): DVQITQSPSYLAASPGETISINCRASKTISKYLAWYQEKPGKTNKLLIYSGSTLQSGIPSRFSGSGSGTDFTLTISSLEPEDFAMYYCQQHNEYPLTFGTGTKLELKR
Sequence of human CD11a (human) (P20701 26-1170): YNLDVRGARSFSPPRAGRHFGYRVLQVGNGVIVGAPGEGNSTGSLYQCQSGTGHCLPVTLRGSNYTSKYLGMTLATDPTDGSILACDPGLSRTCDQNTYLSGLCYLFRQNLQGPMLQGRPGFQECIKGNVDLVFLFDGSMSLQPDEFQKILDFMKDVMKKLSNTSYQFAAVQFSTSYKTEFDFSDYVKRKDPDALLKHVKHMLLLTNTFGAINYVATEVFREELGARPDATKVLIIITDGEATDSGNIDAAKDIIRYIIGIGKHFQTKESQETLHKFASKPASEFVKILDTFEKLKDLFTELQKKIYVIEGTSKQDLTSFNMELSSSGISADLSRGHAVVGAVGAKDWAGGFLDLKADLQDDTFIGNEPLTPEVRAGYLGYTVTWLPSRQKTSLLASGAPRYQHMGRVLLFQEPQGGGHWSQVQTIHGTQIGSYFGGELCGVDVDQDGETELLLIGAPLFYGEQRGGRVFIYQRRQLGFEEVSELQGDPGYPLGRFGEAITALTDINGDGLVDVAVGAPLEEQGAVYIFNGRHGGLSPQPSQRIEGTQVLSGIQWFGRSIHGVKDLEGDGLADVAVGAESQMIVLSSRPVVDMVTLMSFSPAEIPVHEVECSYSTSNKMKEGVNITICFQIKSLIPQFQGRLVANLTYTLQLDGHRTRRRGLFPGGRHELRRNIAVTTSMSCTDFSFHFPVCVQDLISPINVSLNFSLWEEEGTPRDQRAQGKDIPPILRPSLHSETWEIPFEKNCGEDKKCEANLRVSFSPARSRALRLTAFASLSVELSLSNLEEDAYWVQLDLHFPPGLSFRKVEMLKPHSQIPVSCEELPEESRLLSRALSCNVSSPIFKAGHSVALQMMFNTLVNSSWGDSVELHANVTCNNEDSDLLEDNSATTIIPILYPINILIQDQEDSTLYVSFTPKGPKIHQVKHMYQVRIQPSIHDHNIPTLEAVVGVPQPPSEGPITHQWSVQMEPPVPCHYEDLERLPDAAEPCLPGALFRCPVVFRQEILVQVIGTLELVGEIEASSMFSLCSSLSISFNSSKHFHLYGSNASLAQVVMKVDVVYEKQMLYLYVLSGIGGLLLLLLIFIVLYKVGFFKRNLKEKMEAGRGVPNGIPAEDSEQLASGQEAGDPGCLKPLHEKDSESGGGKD

Broadly, the EC50 is the concentration needed to bring the measured effect to its halfway point. A lower EC50 goes with an effect from little substance. A word on the IC50: it is the concentration that gives 50% inhibition. In test [1], chimeric MHM24 IgG1 (antibody) came in with an EC50 of 5.2 ng/mL and an EC50 F(ab)/EC50 F(ab)-2 of 0.006. The same substance yielded an IC50 in test [2] of 0.1 nM.

In the case of humanized MHM24 IgG1 (antibody), the Kd in test [3] is 0.18 nM; in [5], 0.11 nM; in test [8], 0.15 nM. Besides, the Var.EC50/HuIgG1 EC50 in test [4] is 1. Also, the EC50 F(ab)/EC50 F(ab)-2 in test [1] was determined as 0.004. Besides, the half-maximal inhibitory concentration (IC50) in [2] came to 0.13 nM. This substance showed an IC50, human mixed lymphocyte response (MLR) in test [6] of 0.38 nM. For the same substance, the EC50 in test [7] worked out at 0.042 nM.

As to murine MHM24 (antibody), the Kd in test [3] turned out to be 0.13 nM; in test [5] it was 0.16 nM; in test [8] it was 0.15 nM. The substance further registered an IC50 in [2] of 0.09 nM. Further, the IC50, human mixed lymphocyte response (MLR) in test [6] was 0.19 nM.

Regarding murine anti-human CD18 antibody MHM23, the IC50 in test [9] stood at 1.2 nM; in test [10], 1.6 nM.
